Assays:
[1] = molecular target: PT linker-SpyCatcher-His (Streptococcus pyogenes); test: depletion of SpyTag-GA (15 mg/g resin) from supernatant, conditions of Example 4.3; SpyCatcher modified epoxy carrier, batch 4
[2] = molecular target: PT linker-SpyCatcher-His (Streptococcus pyogenes); test: depletion of SpyTag-GA (10 mg/g carrier) from E. coli lysate supernatant, SDS-PAGE densitometry; SpyCatcher on HFA001 epoxy carrier
[3] = molecular target: PT linker-SpyCatcher-His (Streptococcus pyogenes); test: depletion of SpyTag-GA (10 mg/g carrier) from E. coli lysate supernatant, SDS-PAGE densitometry; SpyCatcher on LX-107S epoxy carrier (blocking control without SpyCatcher 72.5)
[4] = molecular target: PT linker-SpyCatcher-His (Streptococcus pyogenes); test: depletion of SpyTag-GA (15 mg/g resin) from supernatant, conditions of Example 4.3; SpyCatcher modified epoxy carrier, batch 3
[5] = molecular target: PT linker-SpyCatcher-His (Streptococcus pyogenes); test: depletion of SpyTag-GA (10 mg/g carrier) from E. coli lysate supernatant, SDS-PAGE densitometry; SpyCatcher on LX-103B epoxy carrier
[6] = molecular target: PT linker-SpyCatcher-His (Streptococcus pyogenes); test: depletion of SpyTag-GA (15 mg/g resin) from supernatant, conditions of Example 4.3; SpyCatcher modified epoxy carrier, batch 5
[7] = molecular target: PT linker-SpyCatcher-His (Streptococcus pyogenes); test: depletion of SpyTag-GA (10 mg/g carrier) from E. coli lysate supernatant, SDS-PAGE densitometry; SpyCatcher on LX-1000EP epoxy carrier
[8] = molecular target: PT linker-SpyCatcher-His (Streptococcus pyogenes); test: depletion of purified SpyTag-GA (15 mg/g carrier) from supernatant, SDS-PAGE densitometry; SpyCatcher-LX-1000EP; pH 7.0, 25 C, 2 h
[9] = molecular target: PT linker-SpyCatcher-His (Streptococcus pyogenes); test: depletion of SpyTag-GA (2.0 mg/g carrier) from E. coli lysate supernatant, SDS-PAGE densitometry; SpyCatcher-LX-1000EP; pH 7.0, 25 C, 2 h
[10] = molecular target: PT linker-SpyCatcher-His (Streptococcus pyogenes); test: depletion of SpyTag-GA (10 mg/g carrier) from E. coli lysate supernatant, SDS-PAGE densitometry; SpyCatcher on ECR8204 epoxy carrier
[11] = molecular target: PT linker-SpyCatcher-His (Streptococcus pyogenes); test: depletion of SpyTag-GA (10 mg/g carrier) from E. coli lysate supernatant, SDS-PAGE densitometry; SpyCatcher on ECR8285 epoxy carrier
[12] = molecular target: PT linker-SpyCatcher-His (Streptococcus pyogenes); test: depletion of SpyTag-GA (15 mg/g resin) from supernatant, conditions of Example 4.3; SpyCatcher modified epoxy carrier, batch 2
[13] = molecular target: PT linker-SpyCatcher-His (Streptococcus pyogenes); test: depletion of SpyTag-GA (15 mg/g resin) from supernatant, conditions of Example 4.3; SpyCatcher modified epoxy carrier, batch 1

SpyTag-GS linker-GA-His fusion protein of a SpyTag and glutaryl-7-amidocephalosporanic acid acylase (from UniProt P07662 30-720) (enzyme)
Immobilization Efficiency (%) [1]: 86.6% | Immobilization Efficiency (%) [2]: 79.4% | Immobilization Efficiency (%) [3]: 49.1% | Immobilization Efficiency (%) [4]: 90.9% | Immobilization Efficiency (%) [5]: 77% | Immobilization Efficiency (%) [6]: 96.9% | Immobilization Efficiency (%) [7]: 77.6% | Immobilization Efficiency (%) [8]: 91.5% | Immobilization Efficiency (%) [9]: 86.2% | Immobilization Efficiency (%) [10]: 52.1% | Immobilization Efficiency (%) [11]: 57.4% | Immobilization Efficiency (%) [12]: 92.2% | Immobilization Efficiency (%) [13]: 94.7%

— patent US20240317895A1
